Experimental data as given in publication PMC5472792, “Bub1 positions Mad1 close to KNL1 MELT repeats to promote checkpoint signalling” (Nature Communications, 2017).
Changes are numbered by the printed parent chain.

How the values were obtained:
[1] = test system: GST-Bub1 425–500; assay: In vitro phosphorylation of GST-Bub1, mass spectrometry; format: biochemical, human
Description: To identify mitotic kinases able to phosphorylate Bub1 on Ser459 and Thr461 we performed in vitro phosphorylation assays with candidate kinases.
A similar set-up was used for analysing the phosphorylated GST-Bub1 except that an EASY-nLC 1200 UHPLC system connected to an Orbitrap Q-Exactive HF was used and the acetonitrile gradient was run for 77 min. The samples were analysed using a ‘fast' acquisition mode with a normalized collision energy (NCE) of 25 and raw data analysed with MaxQuant software suit version 1.5.7.4.
GST- Bub1 (425–500) was expressed in BL21(DE3) cells at 18 °C overnight with 0.5 mM IPTG in the medium. The bacteria were lysed in 50 mM Tris-HCl pH 7.4, 300 mM NaCl, 10% glycerol, 5 mM β-mercaptoethanol, 1 mM PMSF, plus Complete-EDTA free protease inhibitors (Roche) using a high pressure homogenizer. Lysates were cleared by centrifugation and incubated with pre-equilibrated Glutathione-Fast Flow (GE Healthcare) beads for 2 h at 4 °C and eluted with GST-elution buffer at room temperature (50 mM Tris pH 8.8, 300 mM NaCl, 10% glycerol, 5 mM β-mercaptoethanol, 20 mM reduced glutathione). Elutions were pooled and run on Superdex 200 column (GE Healthcare) in PBS with 8.7% glycerol and 5 mM mercaptoethanol. Peak fractions were aliquoted and stored at −80 °C.
500 μM ATP and 125 nM Calyculin A (Cell Signaling) were added and the reactions were incubated at 30 °C for 1 h. Controls were incubated in kinase buffer and Calyculin A only. 6 μg of phosphorylated protein was resolved on NuPAGE Novex 4–12% Bis-Tris protein gels, which were fixed and stained by Colloidal Blue Staining (Thermo Scientific). The band corresponding to GST-Bub1 was cut out and analysed by mass spectrometry.

[2] = test system: Bub1 and KNL1; assay: BioID proximity biotinylation; format: cell-based, human
Description: We speculated that CD1 might engage in a protein-protein interaction that is critical for checkpoint signalling. Mad1 appeared to be the only core component of the checkpoint for which we could see an effect of removing the CD1 on its kinetochore levels (Supplementary Fig. 1 for Cdc20 and ref. [33] for BubR1, Mad1). However, an interaction between human Mad1 and Bub1 cannot be detected in immunoprecipitation experiments. To determine whether there was an interaction between human Mad1 and Bub1, we first developed an assay for looking at transient and/or weak Mad1 interactions in vivo. […] The purification and detection of biotinylated proteins were highly robust and we detected multiple Mad1 peptides upon addition of biotin, as expected (Supplementary Fig. 5C). Using a quantitative mass spectrometry SILAC approach allowed us to compare the proximity of proteins to the N terminus versus the C terminus of Mad1. […]
Figure 3 Bub1 directly interacts with Mad1. (a) Nocodazole arrested HeLa cells stably expressing the indicated Mad1-BirA or BirA-Mad1 fusion protein at near endogenous levels were analyzed 16 h after induction with doxycyclin with or without exposure to 25 μM biotin. […] Bound Bub1 protein was detected by blotting for FLAG. (e) Quantification of three independent experiments as in d with WT binding set to 1. […]

[3] = GST-Bub1 425-500, 30 °C for 1 h, 500 μM ATP, LC-MS, kinase-free control 0

B1: Mps1: purified kinase (Life Technologies) (protein, UniProt P33981 1-857, looked up)
Dual specificity protein …: MESEDLSGRELTIDSIMNKVRDIKNKFKNEDLTDELSLNKISADTTDNSGTVNQIMMMANNPEDWLSLLLKLEKNSVPLSDALLNKLIGRYSQAIEALPPDKYGQNESFARIQVRFAELKAIQEPDDARDYFQMARANCKKFAFVHISFAQFELSQGNVKKSKQLLQKAVERGAVPLEMLEIALRNLNLQKKQLLSEEEKKNLSASTVLTAQESFSGSLGHLQNRNNSCDSRGQTTKARFLYGENMPPQDAEIGYRNSLRQTNKTKQSCPFGRVPVNLLNSPDCDVKTDDSVVPCFMKRQTSRSECRDLVVPGSKPSGNDSCELRNLKSVQNSHFKEPLVSDEKSSELIITDSITLKNKTESSLLAKLEETKEYQEPEVPESNQKQWQSKRKSECINQNPAASSNHWQIPELARKVNTEQKHTTFEQPVFSVSKQSPPISTSKWFDPKSICKTPSSNTLDDYMSCFRTPVVKNDFPPACQLSTPYGQPACFQQQQHQILATPLQNLQVLASSSANECISVKGRIYSILKQIGSGGSSKVFQVLNEKKQIYAIKYVNLEEADNQTLDSYRNEIAYLNKLQQHSDKIIRLYDYEITDQYIYMVMECGNIDLNSWLKKKKSIDPWERKSYWKNMLEAVHTIHQHGIVHSDLKPANFLIVDGMLKLIDFGIANQMQPDTTSVVKDSQVGTVNYMPPEAIKDMSSSRENGKSKSKISPKSDVWSLGCILYYMTYGKTPFQQIINQISKLHAIIDPNHEIEFPDIPEKDLQDVLKCCLKRDPKQRISIPELLAHPYVQIQTHPVNQMAKGTTEEMKYVLGQLVGLNSPNSILKAAKTLYEHYSGGESHNSSSSKTFEKKRGKK
[1]; [3]
  intensity of phospho-peptide 456-VQPS(Phos)PTVHTK (pS459): 0
  intensity of phospho-peptide 456-VQPSPT(Phos)VHTK (pT461): 7,84 E+08
[1]; Ser459 and Thr461, mass spectrometry
  phosphorylation of GST-Bub1 425–500 (in words): phosphorylation of Thr461 but no phosphorylation on Ser459

B2: Mad1-BirA: promiscuous biotin ligase BirA fused to the C terminus of Mad1 (protein)
chain: MEDLGENTMVLSTLRSLNNFISQRVEGGSGLDISTSAPGSLQMQYQQSMQLEERAEQIRSKSHLIQVEREKMQMELSHKRARVELERAASTSARNYEREVDRNQELLTRIRQLQEREAGAEEKMQEQLERNRQCQQNLDAASKRLREKEDSLAQAGETINALKGRISELQWSVMDQEMRVKRLESEKQELQEQLDLQHKKCQEANQKIQELQASQEARADHEQQIKDLEQKLSLQEQDAAIVKNMKSELVRLPRLERELKQLREESAHLREMRETNGLLQEELEGLQRKLGRQEKMQETLVGLELENERLLAKLQSWERLDQTMGLSIRTPEDLSRFVVELQQRELALKDKNSAVTSSARGLEKARQQLQEELRQVSGQLLEERKKRETHEALARRLQKRVLLLTKERDGMRAILGSYDSELTPAEYSPQLTRRMREAEDMVQKVHSHSAEMEAQLSQALEELGGQKQRADMLEMELKMLKSQSSSAEQSFLFSREEADTLRLKVEELEGERSRLEEEKRMLEAQLERRALQGDYDQSRTKVLHMSLNPTSVARQRLREDHSQLQAECERLRGLLRAMERGGTVPADLEAAAASLPSSKEVAELKKQVESAELKNQRLKEVFQTKIQEFRKACYTLTGYQIDITTENQYRLTSLYAEHPGDCLIFKATSPSGSKMQLLETEFSHTVGELIEVHLRRQDSIPAFLSSLTLELFSRQTVA
modifications: left off: BirA, C-terminal, kept
[2]; SILAC mass spectrometry, single experiment, and western blot
  biotinylation of Bub1, BubR1 and Cdc20 (proximity), Mad1-BirA vs BirA-Mad1: more efficiently labelled with biotin

B3: MAD1 EFR/AAA: Mad1-BirA with Glu710, Phe712 and Arg714 mutated to Ala (protein)
chain: B2 chain with E710A, F712A, R714A
modifications: left off: BirA, C-terminal, kept
notes: Mad1-BirA with Glu710, Phe712 and Arg714 mutated to Ala
[2]; nocodazole arrested HeLa, 25 μM biotin, western blot, representative of two independent experiments
  biotinylation of Bub1 and KNL1: did not affect the biotinylation of Bub1 and KNL1
